Results on two molecules are retold here after US20240262915A1 (NANJING SANHOME PHARMACEUTICAL, published 2024).

The term EC50 denotes the midpoint of the concentration-response curve. By Kd is commonly meant the concentration at which binding is half-saturated. In general, koff refers to the first-order rate constant of dissociation. Low readings indicate slow dissociation, high ones fast dissociation. A word on the kon: it is the rate constant with which the complex forms. A higher kon goes with faster complex formation. By IC50 is commonly meant the concentration that inhibits the measured activity by half. Low readings indicate greater potency, high ones weaker potency.

For test [1], the target named is T1, human PD-L1 on hPD-L1-CHO-K1 cells (human, UniProt Q9NZQ7 19-290).
T1 construct: whole, on cells; The making of this cell line is not described
As to the kind of experiment: FACS on hPD-L1-CHO-K1 cells.

Another test deals with T2, PD-L1-his (human, UniProt Q9NZQ7 19-238, limits assumed).
T2 construct: also called human PD-L1 protein
The test can be described thus: BLI, Fortebio Octet RED96, antibody on AHC sensor, PD-L1-his in solution. Background: BLI is a label-free optical method that tracks binding on a fibre tip over time.

For test [2], the target named is T3, TIGIT-his (extracellular region of human TIGIT protein fused with his) (human, UniProt Q495A1 22-141).
T3 construct: also called antigen TIGIT-his
T3 sequence: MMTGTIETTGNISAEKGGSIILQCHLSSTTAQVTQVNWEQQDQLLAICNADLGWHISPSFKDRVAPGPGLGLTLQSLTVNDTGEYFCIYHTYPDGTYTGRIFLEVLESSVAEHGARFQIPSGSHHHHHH
The test can be described thus: BLI, Fortebio Octet RED96, antibody on AHC sensor, TIGIT-his in solution.

Test [3] addresses T4, TIGIT-mFc (extracellular region of human TIGIT with mIgG1-Fc tag) (human).
T4 construct: A bought TIGIT-mFc (Acro Biosystems TIT-H5253) is used for immunization; also called recombinant humanized TIGIT-mFc
T4 chain: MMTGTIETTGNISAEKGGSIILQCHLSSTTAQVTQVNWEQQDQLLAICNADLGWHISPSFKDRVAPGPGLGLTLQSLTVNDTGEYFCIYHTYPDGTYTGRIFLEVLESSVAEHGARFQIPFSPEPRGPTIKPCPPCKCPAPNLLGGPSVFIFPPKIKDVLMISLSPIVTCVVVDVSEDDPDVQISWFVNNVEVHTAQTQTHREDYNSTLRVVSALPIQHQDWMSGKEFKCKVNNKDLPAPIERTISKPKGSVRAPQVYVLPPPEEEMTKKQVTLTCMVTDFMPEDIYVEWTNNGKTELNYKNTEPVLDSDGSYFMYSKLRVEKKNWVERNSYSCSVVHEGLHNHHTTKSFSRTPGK
As to the kind of experiment: FACS, blocking of TIGIT-mFc binding to cells (TIGIT/CD155; cells printed as hTIGIT-CHO-K1).

For test [4], the target named is T5, full-length TIGIT on hTIGIT-CHO-K1 cells (human, UniProt Q495A1 22-244).
T5 construct: CHO-K1 cells stably transfected with pTargeT-TIGIT; also called TIGIT on cell surface
T5 sequence: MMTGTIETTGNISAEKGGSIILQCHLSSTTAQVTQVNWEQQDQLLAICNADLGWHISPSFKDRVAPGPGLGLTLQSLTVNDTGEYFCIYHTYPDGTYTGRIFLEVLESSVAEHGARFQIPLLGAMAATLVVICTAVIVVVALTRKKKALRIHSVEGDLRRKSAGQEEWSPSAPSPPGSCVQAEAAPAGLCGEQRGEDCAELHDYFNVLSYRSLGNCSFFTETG
As to the kind of experiment: FACS on hTIGIT-CHO-K1 cells.

Test [5] has as its target T1, human PD-L1 on hPD-L1-CHO-K1 cells. The test can be described thus: FACS, blocking of PD-1-mFc binding to hPD-L1-CHO-K1 cells (competitor PD-1-mFc). Background: Flow cytometry measures light scatter and fluorescence of single cells or particles in a stream.

T1 sequence (Q9NZQ7 19-290): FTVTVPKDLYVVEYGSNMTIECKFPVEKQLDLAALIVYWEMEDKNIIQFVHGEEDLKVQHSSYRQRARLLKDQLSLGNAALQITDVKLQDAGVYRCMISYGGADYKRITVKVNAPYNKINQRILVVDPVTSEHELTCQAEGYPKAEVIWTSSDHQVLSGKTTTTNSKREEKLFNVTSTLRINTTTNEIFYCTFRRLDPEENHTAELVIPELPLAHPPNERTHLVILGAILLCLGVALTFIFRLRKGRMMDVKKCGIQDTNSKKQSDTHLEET
T2 sequence (Q9NZQ7 19-238 limits assumed): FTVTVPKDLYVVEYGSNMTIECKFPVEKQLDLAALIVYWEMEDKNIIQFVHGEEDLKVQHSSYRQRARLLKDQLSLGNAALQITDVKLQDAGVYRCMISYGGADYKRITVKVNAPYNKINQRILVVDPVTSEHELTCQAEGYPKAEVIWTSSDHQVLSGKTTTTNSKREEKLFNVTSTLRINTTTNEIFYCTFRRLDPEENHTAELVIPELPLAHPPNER

B1: HuPL1642-T2353-ScFv (bispecific antibody, human IgG4 S228P, kappa)
heavy: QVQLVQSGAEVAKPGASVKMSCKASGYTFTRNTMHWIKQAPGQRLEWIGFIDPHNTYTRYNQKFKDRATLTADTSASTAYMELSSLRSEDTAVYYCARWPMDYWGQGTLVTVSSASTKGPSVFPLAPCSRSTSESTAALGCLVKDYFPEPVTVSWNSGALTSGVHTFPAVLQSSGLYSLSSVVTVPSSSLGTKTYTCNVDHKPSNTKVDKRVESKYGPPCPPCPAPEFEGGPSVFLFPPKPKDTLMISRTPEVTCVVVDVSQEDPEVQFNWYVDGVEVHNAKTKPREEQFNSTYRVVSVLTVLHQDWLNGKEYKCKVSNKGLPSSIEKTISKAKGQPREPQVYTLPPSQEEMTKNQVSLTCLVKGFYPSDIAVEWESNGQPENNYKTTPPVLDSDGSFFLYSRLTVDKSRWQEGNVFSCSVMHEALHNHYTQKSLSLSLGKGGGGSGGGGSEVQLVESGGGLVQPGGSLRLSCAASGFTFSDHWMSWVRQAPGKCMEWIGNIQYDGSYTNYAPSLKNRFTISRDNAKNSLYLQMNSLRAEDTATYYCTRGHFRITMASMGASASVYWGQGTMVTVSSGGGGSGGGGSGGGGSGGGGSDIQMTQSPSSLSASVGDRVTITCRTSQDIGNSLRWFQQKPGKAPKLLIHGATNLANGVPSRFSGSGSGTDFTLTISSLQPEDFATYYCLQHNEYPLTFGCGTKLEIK
light: DIVMTQSPDSLAVSLGERVTMRCKSSQSLSWSENQNNYLSWYQQKPGQPPKLLIYGASIRESGVPDRFSGSGSGTDFTLTISSVQAEDVGVYYCQHNHGSFLPYTFGQGTKLEIKRTVAAPSVFIFPPSDEQLKSGTASVVCLLNNFYPREAKVQWKVDNALQSGNSQESVTEQDSKDSTYSLSSTLTLSKADYEKHKVYACEVTHQGLSSPVTKSFNRGEC
notes: Symmetrical structure: PL1642-T2353-scFv-HC and HuPL1642-VL2
B1 came in with an EC50 in test [1] of 0.955 nM. Besides, in the test with PD-L1-his, the Kd was 2.08 nM, the koff is 0.000326 s⁻¹ and the kon turned out to be 157000 M⁻¹ s⁻¹. Further, in test [2], binding was put at a Kd of 2.74 nM, the koff amounted to 0.00239 s⁻¹ and the kon was found to be 872000 M⁻¹ s⁻¹. In addition, the IC50 in test [3] worked out at 1.68 nM.

B2: HuPL721-T2353-ScFab (bispecific antibody, human IgG4 S228P, kappa)
chain 1: DIQMTQSPSSLSASVGDRVTITCRTSQDIGNSLRWFQQKPGKAPKLLIHGATNLANGVPSRFSGSGSGTDFTLTISSLQPEDFATYYCLQHNEYPLTFGCGTKLEIKRTVAAPSVFIFPPSDEQLKSGTASVVCLLNNFYPREAKVQWKVDNALQSGNSQESVTEQDSKDSTYSLSSTLTLSKADYEKHKVYACEVTHQGLSSPVTKSFNRGECGGGGSGGGGSGGGGSGGGGSGGGGSGGGGSGGGGSGGGGSEVQLVESGGGLVQPGGSLRLSCAASGFTFSDHWMSWVRQAPGKCMEWIGNIQYDGSYTNYAPSLKNRFTISRDNAKNSLYLQMNSLRAEDTATYYCTRGHFRITMASMGASASVYWGQGTMVTVSSASTKGPSVFPLAPCSRSTSESTAALGCLVKDYFPEPVTVSWNSGALTSGVHTFPAVLQSSGLYSLSSVVTVPSSSLGTKTYTCNVDHKPSNTKVDKRVESKYGPPCPPCPAPEFLGGPSVFLFPPKPKDTLMISRTPEVTCVVVDVSQEDPEVQFNWYVDGVEVHNAKTKPREEQFNSTYRVVSVLTVLHQDWLNGKEYKCKVSNKGLPSSIEKTISKAKGQPREPQVYTLPPCQEEMTKNQVSLWCLVKGFYPSDIAVEWESNGQPENNYKTTPPVLDSDGSFFLYSRLTVDKSRWQEGNVFSCSVMHEALHNHYTQKSLSLSLGK
chain 2: not shown
notes: each is light chain - GGGGS linker - heavy chain, IgG4
In the case of B2, the EC50 in test [1] turned out to be 1.77 nM; in test [4] it was 1.3 nM. In addition, the values for the dissociation constant Kd (with PD-L1-his; in test [2]) were 1.32 nM and 3.06 nM, respectively. The koff in the test with PD-L1-his worked out at 0.000273 s⁻¹; in test [2], 0.00333 s⁻¹. Moreover, the kon with PD-L1-his worked out at 207000 M⁻¹ s⁻¹; in test [2], 1.09e+06 M⁻¹ s⁻¹. For the same molecule, the values for the IC50 in test [5] and in test [3] were 3.19 nM and 4.08 nM, respectively.
